Biological target: Trx-6His-HRV3C-BCL6 (Thioredoxin-6His-tagged BCL6 BTB, uncleaved) (human), P41182
Test: AlphaScreen or HTRF; TR-FRET competition: 1 or 10 nM Trx-6His-BCL6 BTB, 300 nM BCOR-A633, 0.5 or 1 nM anti-6His-Terbium cryptate; 25 mM Hepes pH 8, 100 mM NaCl, 0.05% Tween20, 0.5 mM TCEP, 0.05% BSA; 2 h at room temperature

Binder: RSEIISTAPSSWVVPGP (modifications not checked) [unlabelled BCOR peptide (17 residue BCOR peptide)]
- IC50: 8 µM
